Molecular target: Drosophila CMP-sialic acid synthetase (CSAS), wild-type, 3xFLAG-tagged (Drosophila)
Experiment: SEC; clarified lysate of flies expressing CSAS-FLAG on a calibrated Superdex 75 10/30 HR column; 150 mM NaCl in 20 mM potassium phosphate pH 6.8; fractions analysed by FLAG Western blot

Drosophila CMP-sialic acid synthetase (CSAS), wild-type, 3xFLAG-tagged (enzyme)
stoichiometry N: 2
